Source: patent publication US20250339531A1, “DUX4 POLYPEPTIDES AND NUCLEIC ACIDS FOR TREATING INFLAMMATORY AND AUTOIMMUNE CONDITIONS” (Fred Hutchinson Cancer Center, priority 2021, published 2025)

Experiments:
Experiment in all cases: anti-FLAG co-IP LC-MS, exp 4, +Dox +IFNG
[1] = target: Protease serine 2 preproprotein (Homo sapiens) (UniProt A6XMV9)
[2] = target: Tubulin beta chain (Homo sapiens) (UniProt P07437)
[3] = target: Protein S100-A6 (Homo sapiens) (UniProt P06703)
[4] = target: Procollagen-lysine, 2-oxoglutarate 5-dioxygenase 1 (Homo sapiens) (UniProt Q02809)
[5] = target: 60S ribosomal protein L8 (Homo sapiens) (UniProt P62917)
[6] = target: Heterogeneous nuclear ribonucleoprotein H (Homo sapiens) (UniProt G8JLB6)
[7] = target: Endoplasmic reticulum chaperone BiP (Homo sapiens) (UniProt P11021)
[8] = target: Myosin regulatory light chain 12A (Homo sapiens) (UniProt J3QRS3)
[9] = target: Transcription intermediary factor 1-beta (Homo sapiens) (UniProt Q13263)
[10] = target: Prelamin-A/C (Homo sapiens) (UniProt P02545)
Vimentin (Homo sapiens) = Vimentin (Homo sapiens) (UniProt P08670)
[11] = target: Insulin-like growth factor 2 mRNA-binding protein 2 (Homo sapiens) (UniProt F8W930)
[12] = target: AP-2 complex subunit alpha-1 (Homo sapiens) (UniProt O95782)
[13] = target: Probable ubiquitin carboxyl-terminal hydrolase FAF-X (Homo sapiens) (UniProt Q93008)
Plectin (Homo sapiens) = Plectin (Homo sapiens) (UniProt Q15149)
[14] = target: 60S ribosomal protein L13 (Homo sapiens) (UniProt P26373)
[15] = target: Serine/threonine-protein phosphatase 2A 65 kDa regulatory subunit A alpha isoform (Homo sapiens) (UniProt P30153)
[16] = target: Heat shock protein HSP 90-beta (Homo sapiens) (UniProt P08238)
[17] = target: Plasminogen activator inhibitor 1 (Homo sapiens) (UniProt P05121)
[18] = target: Dynactin subunit 1 (Homo sapiens) (UniProt Q14203)
[19] = target: T-complex protein 1 subunit gamma (Homo sapiens) (UniProt P49368)
[20] = target: Heat shock protein HSP 90-alpha (Homo sapiens) (UniProt P07900)
[21] = target: Prolyl 4-hydroxylase subunit alpha-1 (Homo sapiens) (UniProt P13674)
[22] = target: Eukaryotic initiation factor 4A-II (Homo sapiens) (UniProt Q14240)
[23] = target: Reticulon-4 (Homo sapiens) (UniProt Q9NQC3)
Filamin-A (Homo sapiens) = Filamin-A (Homo sapiens) (UniProt P21333)
[24] = target: Heat shock 70 kDa protein 1B (Homo sapiens) (UniProt P0DMV9)
[25] = target: Clathrin heavy chain (Homo sapiens) (UniProt Q00610)
[26] = target: Ras GTPase-activating protein-binding protein 1 (Homo sapiens) (UniProt Q13283)
[27] = target: Dolichyl-diphosphooligosaccharide--protein glycosyltransferase subunit 1 (Homo sapiens) (UniProt P04843)
[28] = target: Elongation factor 1-alpha 1 (Homo sapiens) (UniProt P68104)
[29] = target: 60S ribosomal protein L11 (Homo sapiens) (UniProt P62913)
[30] = target: Alpha-actinin-4 (Homo sapiens) (UniProt O43707)
[31] = target: Galectin-7 (Homo sapiens) (UniProt P47929)
[32] = target: Importin subunit alpha-5 (Homo sapiens) (UniProt P52294)
[33] = target: Coronin-1C (Homo sapiens) (UniProt Q9ULV4)

Eukaryotic initiation factor 4A-II (Homo sapiens), sequence (Q14240 whole entry): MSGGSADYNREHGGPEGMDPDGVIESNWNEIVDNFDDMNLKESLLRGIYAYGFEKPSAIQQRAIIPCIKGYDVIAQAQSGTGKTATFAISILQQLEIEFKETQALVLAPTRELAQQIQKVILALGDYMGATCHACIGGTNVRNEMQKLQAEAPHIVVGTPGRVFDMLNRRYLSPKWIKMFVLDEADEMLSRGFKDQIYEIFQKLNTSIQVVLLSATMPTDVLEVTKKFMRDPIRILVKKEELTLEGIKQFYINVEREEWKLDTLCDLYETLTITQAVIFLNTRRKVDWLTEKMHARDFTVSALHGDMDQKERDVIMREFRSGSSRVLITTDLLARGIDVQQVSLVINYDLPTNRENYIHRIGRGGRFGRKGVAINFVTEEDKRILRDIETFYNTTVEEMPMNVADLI
Filamin-A (Homo sapiens), sequence (P21333 2-2647 limits assumed): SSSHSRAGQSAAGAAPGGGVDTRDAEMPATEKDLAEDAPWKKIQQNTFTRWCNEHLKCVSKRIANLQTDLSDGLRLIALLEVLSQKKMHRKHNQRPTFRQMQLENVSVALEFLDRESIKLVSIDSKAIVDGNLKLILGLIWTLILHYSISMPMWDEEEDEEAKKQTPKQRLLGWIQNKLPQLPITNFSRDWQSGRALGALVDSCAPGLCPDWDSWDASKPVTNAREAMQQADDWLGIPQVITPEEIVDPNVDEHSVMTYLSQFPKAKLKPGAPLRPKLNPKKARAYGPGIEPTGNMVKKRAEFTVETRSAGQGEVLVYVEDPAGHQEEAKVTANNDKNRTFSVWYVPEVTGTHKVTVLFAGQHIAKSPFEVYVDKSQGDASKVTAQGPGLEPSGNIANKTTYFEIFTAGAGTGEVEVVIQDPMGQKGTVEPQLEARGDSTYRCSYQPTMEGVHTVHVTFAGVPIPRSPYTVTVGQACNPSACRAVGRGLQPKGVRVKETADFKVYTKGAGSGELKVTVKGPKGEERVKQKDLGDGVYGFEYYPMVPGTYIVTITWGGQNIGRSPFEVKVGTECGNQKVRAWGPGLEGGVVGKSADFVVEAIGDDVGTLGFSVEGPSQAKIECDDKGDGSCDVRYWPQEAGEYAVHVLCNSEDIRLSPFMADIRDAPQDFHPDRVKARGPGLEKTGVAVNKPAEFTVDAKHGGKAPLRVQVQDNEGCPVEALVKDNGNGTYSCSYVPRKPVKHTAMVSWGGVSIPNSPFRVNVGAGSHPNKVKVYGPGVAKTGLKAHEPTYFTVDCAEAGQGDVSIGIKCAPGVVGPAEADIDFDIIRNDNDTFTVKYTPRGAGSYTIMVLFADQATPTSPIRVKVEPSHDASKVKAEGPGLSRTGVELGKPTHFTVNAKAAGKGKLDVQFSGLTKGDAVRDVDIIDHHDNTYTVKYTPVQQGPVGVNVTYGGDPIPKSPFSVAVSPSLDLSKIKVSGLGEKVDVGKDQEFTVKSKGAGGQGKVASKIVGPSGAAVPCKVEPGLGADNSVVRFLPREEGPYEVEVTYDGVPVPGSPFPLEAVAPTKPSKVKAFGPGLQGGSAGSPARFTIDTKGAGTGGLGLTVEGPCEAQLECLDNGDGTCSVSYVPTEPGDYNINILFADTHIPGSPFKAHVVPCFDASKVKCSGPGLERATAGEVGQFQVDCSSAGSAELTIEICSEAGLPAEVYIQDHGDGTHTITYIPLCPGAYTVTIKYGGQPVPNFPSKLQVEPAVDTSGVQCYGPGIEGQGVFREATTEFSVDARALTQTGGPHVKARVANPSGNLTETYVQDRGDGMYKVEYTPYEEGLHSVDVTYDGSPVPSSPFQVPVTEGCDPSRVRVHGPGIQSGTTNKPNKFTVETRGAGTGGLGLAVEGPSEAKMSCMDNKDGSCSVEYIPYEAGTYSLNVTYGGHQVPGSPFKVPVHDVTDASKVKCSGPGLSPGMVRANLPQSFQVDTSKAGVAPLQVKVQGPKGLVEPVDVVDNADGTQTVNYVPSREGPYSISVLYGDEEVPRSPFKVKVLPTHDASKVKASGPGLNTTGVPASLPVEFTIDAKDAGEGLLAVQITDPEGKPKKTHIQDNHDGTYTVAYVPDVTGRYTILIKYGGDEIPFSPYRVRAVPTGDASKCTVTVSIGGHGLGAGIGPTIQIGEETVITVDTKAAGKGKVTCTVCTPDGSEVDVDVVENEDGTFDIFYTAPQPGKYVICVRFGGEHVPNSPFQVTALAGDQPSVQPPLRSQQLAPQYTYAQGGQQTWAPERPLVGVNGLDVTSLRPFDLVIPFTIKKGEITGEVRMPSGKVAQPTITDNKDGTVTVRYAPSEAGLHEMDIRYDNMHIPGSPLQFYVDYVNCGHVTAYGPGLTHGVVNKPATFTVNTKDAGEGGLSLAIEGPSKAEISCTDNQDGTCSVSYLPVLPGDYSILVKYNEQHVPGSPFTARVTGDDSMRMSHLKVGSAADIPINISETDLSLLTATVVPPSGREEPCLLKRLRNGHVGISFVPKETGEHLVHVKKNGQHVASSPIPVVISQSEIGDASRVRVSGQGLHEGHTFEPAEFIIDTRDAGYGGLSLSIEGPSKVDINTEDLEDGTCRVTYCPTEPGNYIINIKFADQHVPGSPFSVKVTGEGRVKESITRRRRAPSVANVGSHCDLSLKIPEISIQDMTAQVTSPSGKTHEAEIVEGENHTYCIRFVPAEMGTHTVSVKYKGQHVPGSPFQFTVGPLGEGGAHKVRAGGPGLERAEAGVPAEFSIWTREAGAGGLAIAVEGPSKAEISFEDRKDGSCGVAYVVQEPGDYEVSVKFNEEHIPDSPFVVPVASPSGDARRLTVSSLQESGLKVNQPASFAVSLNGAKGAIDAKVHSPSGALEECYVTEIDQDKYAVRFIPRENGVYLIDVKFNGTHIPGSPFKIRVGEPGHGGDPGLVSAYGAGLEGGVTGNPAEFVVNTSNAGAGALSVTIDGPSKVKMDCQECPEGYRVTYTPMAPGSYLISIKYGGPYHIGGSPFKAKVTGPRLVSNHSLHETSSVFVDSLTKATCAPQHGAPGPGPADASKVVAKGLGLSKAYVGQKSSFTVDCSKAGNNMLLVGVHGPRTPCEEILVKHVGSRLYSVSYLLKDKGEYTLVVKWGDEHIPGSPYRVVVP
Protease serine 2 preproprotein (Homo sapiens), sequence (A6XMV9 entry or part of it limits assumed, form in doubt): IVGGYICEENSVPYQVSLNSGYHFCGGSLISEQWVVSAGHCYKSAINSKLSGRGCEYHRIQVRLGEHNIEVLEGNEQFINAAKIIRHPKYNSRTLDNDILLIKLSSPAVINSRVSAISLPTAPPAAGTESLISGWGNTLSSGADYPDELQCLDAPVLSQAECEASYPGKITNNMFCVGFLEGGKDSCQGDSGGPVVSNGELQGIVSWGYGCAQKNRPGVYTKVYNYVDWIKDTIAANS
Importin subunit alpha-5 (Homo sapiens), sequence (P52294 2-538 limits assumed): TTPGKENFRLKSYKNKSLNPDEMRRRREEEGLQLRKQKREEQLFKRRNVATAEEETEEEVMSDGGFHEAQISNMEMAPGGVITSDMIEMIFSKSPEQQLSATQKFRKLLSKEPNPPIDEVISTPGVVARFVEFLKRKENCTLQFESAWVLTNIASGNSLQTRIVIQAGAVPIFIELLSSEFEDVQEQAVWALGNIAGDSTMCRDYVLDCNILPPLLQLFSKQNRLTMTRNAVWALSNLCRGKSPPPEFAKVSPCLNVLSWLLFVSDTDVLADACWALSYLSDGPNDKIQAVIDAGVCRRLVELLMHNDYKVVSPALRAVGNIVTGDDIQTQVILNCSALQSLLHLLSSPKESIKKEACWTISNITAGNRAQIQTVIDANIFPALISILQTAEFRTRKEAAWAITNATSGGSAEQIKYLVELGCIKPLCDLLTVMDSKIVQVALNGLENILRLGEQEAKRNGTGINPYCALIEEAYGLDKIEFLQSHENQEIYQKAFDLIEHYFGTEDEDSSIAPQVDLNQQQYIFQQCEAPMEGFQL
Prolyl 4-hydroxylase subunit alpha-1 (Homo sapiens), sequence (P13674 18-534 limits assumed): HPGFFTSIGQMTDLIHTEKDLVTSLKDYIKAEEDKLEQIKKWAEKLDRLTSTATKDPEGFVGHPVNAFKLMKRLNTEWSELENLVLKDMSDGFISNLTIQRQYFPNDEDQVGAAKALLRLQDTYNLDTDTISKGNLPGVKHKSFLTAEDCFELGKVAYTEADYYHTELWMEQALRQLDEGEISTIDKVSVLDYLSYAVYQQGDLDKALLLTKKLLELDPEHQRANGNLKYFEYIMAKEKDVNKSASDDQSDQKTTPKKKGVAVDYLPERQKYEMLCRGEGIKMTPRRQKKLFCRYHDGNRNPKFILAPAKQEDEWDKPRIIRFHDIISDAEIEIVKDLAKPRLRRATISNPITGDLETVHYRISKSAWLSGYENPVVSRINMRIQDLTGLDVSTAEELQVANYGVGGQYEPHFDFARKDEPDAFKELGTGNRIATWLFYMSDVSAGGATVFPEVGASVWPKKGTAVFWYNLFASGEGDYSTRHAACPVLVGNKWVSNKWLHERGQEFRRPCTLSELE
Procollagen-lysine, 2-oxoglutarate 5-dioxygenase 1 (Homo sapiens), sequence (Q02809 19-727 limits assumed): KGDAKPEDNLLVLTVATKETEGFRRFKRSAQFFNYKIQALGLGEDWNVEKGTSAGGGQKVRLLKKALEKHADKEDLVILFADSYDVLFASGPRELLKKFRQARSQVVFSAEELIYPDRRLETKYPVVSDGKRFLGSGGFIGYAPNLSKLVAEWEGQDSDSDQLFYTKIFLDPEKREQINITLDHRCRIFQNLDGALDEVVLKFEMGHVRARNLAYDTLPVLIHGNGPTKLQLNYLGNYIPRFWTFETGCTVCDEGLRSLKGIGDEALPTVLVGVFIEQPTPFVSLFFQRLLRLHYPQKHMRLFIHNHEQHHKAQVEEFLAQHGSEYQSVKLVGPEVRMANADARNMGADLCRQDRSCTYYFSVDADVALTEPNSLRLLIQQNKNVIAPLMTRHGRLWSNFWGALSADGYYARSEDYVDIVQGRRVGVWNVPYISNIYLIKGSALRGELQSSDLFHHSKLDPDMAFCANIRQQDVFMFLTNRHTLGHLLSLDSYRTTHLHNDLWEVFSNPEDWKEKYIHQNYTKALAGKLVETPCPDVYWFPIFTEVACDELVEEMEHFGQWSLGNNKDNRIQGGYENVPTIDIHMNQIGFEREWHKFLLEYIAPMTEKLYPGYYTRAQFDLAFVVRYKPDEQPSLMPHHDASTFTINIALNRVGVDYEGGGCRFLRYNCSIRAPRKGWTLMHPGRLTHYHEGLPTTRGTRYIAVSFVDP

i3XFLAG-NLS-CTDaa154-424
PSMs [1]: 2 PSMs | PSMs [2]: 110 PSMs | PSMs [3]: 2 PSMs | PSMs [4]: 6 PSMs | PSMs [5]: 2 PSMs | PSMs [6]: 3 PSMs | PSMs [7]: 44 PSMs | PSMs [8]: 62 PSMs | PSMs [9]: 2 PSMs | PSMs [10]: 6 PSMs | PSMs (Vimentin (Homo sapiens)): 55 PSMs | PSMs [11]: 2 PSMs | PSMs [12]: 2 PSMs | PSMs [13]: 3 PSMs | PSMs (Plectin (Homo sapiens)): 7 PSMs | PSMs [14]: 2 PSMs | PSMs [15]: 2 PSMs | PSMs [16]: 10 PSMs | PSMs [17]: 3 PSMs | PSMs [18]: 2 PSMs | PSMs [19]: 2 PSMs | PSMs [20]: 10 PSMs | PSMs [21]: 9 PSMs | PSMs [22]: 6 PSMs | PSMs [23]: 6 PSMs | PSMs (Filamin-A (Homo sapiens)): 10 PSMs | PSMs [24]: 29 PSMs | PSMs [25]: 28 PSMs | PSMs [26]: 2 PSMs | PSMs [27]: 2 PSMs | PSMs [28]: 9 PSMs | PSMs [29]: 3 PSMs | PSMs [30]: 46 PSMs | PSMs [31]: 6 PSMs | PSMs [32]: 2 PSMs | PSMs [33]: 7 PSMs
